Two molecules from patent US8088892B2, “Inhibitors of proteins from the Rho-GEF family” (Centre National de la Recherche Scientifique (C.N.R.S.), priority 2002, dated 2012) can be followed below.

One assay has as its target T1, Kalirin GEFD2 (KalGEFD2) (Rattus norvegicus, UniProt P97924).
T1 construct: KalGEFD2, a.a; 1850-2190, 65% identity with TrioGEFD2; made in house
Description: In vitro GEF assay on RhoA. The assay is classed as biochemical. Also noted: key to in vitro GEF assay (inhibition): +++^2 and +^2 represent respectively a full and a partial (see FIG. 3) inhibitory effect; +++^2 and +^2 represent respectively a full and a partial (see FIG. 3) inhibitory effect; −−^2 represents a lack of inhibitory effect. The following applies: for Effect on Kalirin GEFD2 exchange activity on RhoA: 20-fold molar excess, KalGEFD2 1.7 μM. How it is done: To test the specificity of TRIAPα inhibition in vitro, exchange experiments were performed either on RhoA with different RhoA-specific GEFs: Trio GEFD2 (0.4 μM), Kalirin GEFD2 (KalGEFD2, 1.7 μM), p63RhoGEF (Souchet et al., 2002) (0.4 μM) and Lbc (amino acids 172-598; Zheng et al., 1995) (0.4 μM), or on RhoG, with the RhoG-specific GEF domain of Trio (TrioGEFD1, 0.1 μM). Exchange assays were performed with the recombinant GEFs as described in FIG. 2A. Different concentrations of RhoGEFs were used to yield a similar nucleotide exchange efficiency. For each exchange factor, three independent experiments were done in absence (black bar) or in the presence (grey bar) of a 20-fold molar excess of TRIAPα.
An in vitro guanine nucleotide exchange (GEF) assay was used to test whether the TrioGEFD2-binding aptamers could inhibit the catalytic activity of TrioGEFD2 towards RhoA. For this purpose, the aptamers TRIAPα, TRIAPβ and TRIAPγ (including the Trx gene) were excised from pEG202 as EcoRI/NotI fragments and cloned into pGEX4T1 EcoRI/NotI. The aptamers were then expressed and purified from bacteria as GST fusion proteins, using standard procedures (Smith and Johnson, 1988). GTPase-GST fusion proteins were prepared, loaded with [^3H]GDP and the guanine nucleotide release assays were performed as described (Debant et al., 1996), using recombinant GST-TrioGEFD2 (a.a. 1848-2298), TrioDH2 (a.a. 1848-2096). For each point, 0.3 μM GTPase was mixed with or without 0.4 μM GEF in presence of non-labeled GTP, and the reaction mix was filtered after 0 min and 15 mm reaction at 25° C. The catalytic activity of TrioGEFD2 was thus measured by the decrease of the GTPase-associated radioactivity. The results are expressed as the ratio “exchange after 15 min over exchange after 0 min” (% bound [^3H]GDP-RhoA). To measure the effect of the aptamers on the exchange activity, a 20-fold molar excess of GST-TRIAPs was pre-incubated with GEFD2 (or GEFD1) for 30 min on ice before the exchange assay was carried out. For each experiment, data were obtained in triplicate.
The effect of GST-TRIAPα on other Rho-GEFs that display in vitro exchange activity on RhoA was next tested to investigate whether TRIAPα inhibition was specific of TrioGEFD2. The exchange activities of the RhoGEF Lbc (a.a. 1-424, FIG. 3)(Zheng et al., 1995) and Dbl (a.a. 495-826, data not shown) were not affected by GST-TRIAPα. The effect of GST-TRIAPα on the catalytic activity of RhoGEFs that display a high sequence similarity with TrioGEFD2 was then tested: the recently identified RhoA-specific p63RhoGEF (Souchet et al., 2002) (a.a. 149-374, 71.5% identity with TrioGEFD2, 0.4 μM) and the second Rho-GEF domain of the Trio family member Kalirin (KalGEFD2, a.a. 1850-2190, 65% identity with TrioGEFD2, 1.7 μM). Different concentrations of RhoGEFs were used to yield similar nucleotide exchange […]. For each exchange factor, three independent experiments were done in absence or in the presence of a 20-fold molar excess of GST-TRIAPα. […] Thus, the in vitro inhibitory activity of TRIAPα was selective for TrioGEFD2 (see table I for summary of the tested RhoGEFs).

The target in another assay is TrioGEFD2 (Homo sapiens, UniProt O75962). The assay can be described thus: Yeast Exchange Assay (YEA), RhoA activation. The assay is classed as cell-based. The following applies: yeast strain TAT7, reporter gene. An excerpt: (§1) The wild type GTPase is fused to the LexA DNA binding domain (Matchmaker GAL4 two-hybrid, Clontech Laboratories, Inc., USA) and the effector to the […] (Matchmaker GAL4 two-hybrid, Clontech, Inc., USA). Under these conditions, no binding occurs in the TAT7 strain (De Toledo et al., 2000). Upon addition of a third plasmid expressing the GEF, the GTPase gets activated and binds to its effector, thus leading to the transactivation of the reporter gene LacZ.
TrioGEFD2, a control GEF (GEF720) or an empty vector (−GEF: corresponds to a vector without GEF) were introduced into the YEA system and analysed for their ability to transactivate the reporter gene in absence (left panel) or in the presence (right panel) of TRIPα.
(§2) In order to better characterise the effect of TRIAPα on the Trio full length RhoGEF activity, the yeast exchange assay (YEA) was used, which is a quick and quantitative test derived from the classical two-hybrid system allowing to measure Rho-GEF activity and specificity (De Toledo et al., 2000). This functional assay is based on the fact that the GTPase binds to its effector only if it is activated by a RhoGEF. Briefly, yeasts are transformed with the GTPase fused to the LexA binding domain (LexA), and its effector to the GAL-4 Activating Domain (GAD), and with the adequate Rho-GEF partner in the yeast strain TAT7 (FIG. 7). […]
For orientation: In a reporter assay the amount or activity of a reporter protein is the signal.

In another assay the target is T2, Full length Trio (RhoG) (Homo sapiens, UniProt O75962).
T2 construct: Full length Trio was introduced into the YEA; expressed in transfected cells; host or cells: yeast strain TAT7
The assay can be described thus: Yeast Exchange Assay (YEA), full length Trio on RhoG. The assay is classed as cell-based. The arrangement: key to activation of the reporter gene by full length Trio, RhoG: “+ +” represents a slight activation of the reporter gene; “+ + + +” represents a strong activation of the reporter gene; “−” represents no activation of the reporter gene.
Text: as §1
Full length Trio was introduced into the YEA and tested for its ability to activate RhoA and RhoG respectively, in the presence or absence of TRIPα. The table below summarizes the effect of TRIPα on Trio as schematized in this Figure.
as §2

Turning to “AREGADGAICGYNLATLVMLGPSERVFCPLCEPCSSDIYELM [TRIPα, 42-amino acid peptide corresponding to the variable region of TRIAPα]”, in the assay with Kalirin GEFD2 (KalGEFD2), the “Effect on Kalirin GEFD2 exchange activity on RhoA” value is on record as “slightly inhibited”. Also, in the assay with TrioGEFD2, the “Inhibition of TrioGEFD2-mediated RhoA activation in the YEA system” value was “inhibits TrioGEFD2-mediated RhoA activation”. The “activation of the reporter gene by full length Trio, RhoG” value with Full length Trio (RhoG) (+TRIPα (−TRIPα: + +)) is listed as “+ + + +”.

B1: TRIAPα: aptamer of 154 amino acids: variable region of 42 amino acids inserted into the thioredoxin protein; tested as GST fusion (protein)
chain: MSDKIIHLTDDSFDTDVLKADGAILVDFWAEWCGPAREGADGAICGYNLATLVMLGPSERVFCPLCEPCSSDIYELMGPCKMIAPILDEIADEYQGKLTVAKLNIDQNPGTAPKYGIRGIPTLLLFKNGEVASATKVGALSKGQLKEFLDANLA
Turning to B1, the “Effect on Kalirin GEFD2 exchange activity on RhoA” value is given as “weakly inhibits” in the assay with Kalirin GEFD2 (KalGEFD2) and “only weakly inhibited” with Kalirin GEFD2 (KalGEFD2) (listed as GST-TRIAPα). For the same molecule, in the assay with Kalirin GEFD2 (KalGEFD2) (RhoGEF KalirinDH2PH2), the “in vitro GEF assay (inhibition)” value is given as “+^2”. In addition, the “Inhibition of TrioGEFD2-mediated RhoA activation in the YEA system” value with TrioGEFD2 is listed as “blocked specifically TrioGEFD2-mediated activation of RhoA”. The “Effect on full-length Trio (TrioGEFD1) activation of RhoG in the YEA system” value with Full length Trio (RhoG) was “greatly enhanced TrioGEFD1 activation of RhoG”.
